# From patent US20130101582A1, “Tiki1 and Tiki2, Wnt Inhibitors” (CHILDREN'S MEDICAL CENTER CORPORATION, priority 2010, published 2013)
# T1: mFz8CRD-IgG (Mus musculus, UniProt Q61091)
# T1 construct: using the extracellular domain of mouse Fz8 (mFz8CRD-IgG) or LRP6 (LRP6N-IgG)
# T1 sequence (Q61091 30-151 limits assumed): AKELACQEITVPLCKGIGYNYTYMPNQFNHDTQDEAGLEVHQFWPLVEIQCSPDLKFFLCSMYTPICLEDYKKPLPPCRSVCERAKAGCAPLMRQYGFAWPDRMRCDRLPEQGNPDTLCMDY
# T2: LRP6N-IgG (Homo sapiens, UniProt O75581)
# T2 construct: using the extracellular domain of mouse Fz8 (mFz8CRD-IgG) or LRP6 (LRP6N-IgG)
# T2 sequence (O75581 20-1370 limits assumed): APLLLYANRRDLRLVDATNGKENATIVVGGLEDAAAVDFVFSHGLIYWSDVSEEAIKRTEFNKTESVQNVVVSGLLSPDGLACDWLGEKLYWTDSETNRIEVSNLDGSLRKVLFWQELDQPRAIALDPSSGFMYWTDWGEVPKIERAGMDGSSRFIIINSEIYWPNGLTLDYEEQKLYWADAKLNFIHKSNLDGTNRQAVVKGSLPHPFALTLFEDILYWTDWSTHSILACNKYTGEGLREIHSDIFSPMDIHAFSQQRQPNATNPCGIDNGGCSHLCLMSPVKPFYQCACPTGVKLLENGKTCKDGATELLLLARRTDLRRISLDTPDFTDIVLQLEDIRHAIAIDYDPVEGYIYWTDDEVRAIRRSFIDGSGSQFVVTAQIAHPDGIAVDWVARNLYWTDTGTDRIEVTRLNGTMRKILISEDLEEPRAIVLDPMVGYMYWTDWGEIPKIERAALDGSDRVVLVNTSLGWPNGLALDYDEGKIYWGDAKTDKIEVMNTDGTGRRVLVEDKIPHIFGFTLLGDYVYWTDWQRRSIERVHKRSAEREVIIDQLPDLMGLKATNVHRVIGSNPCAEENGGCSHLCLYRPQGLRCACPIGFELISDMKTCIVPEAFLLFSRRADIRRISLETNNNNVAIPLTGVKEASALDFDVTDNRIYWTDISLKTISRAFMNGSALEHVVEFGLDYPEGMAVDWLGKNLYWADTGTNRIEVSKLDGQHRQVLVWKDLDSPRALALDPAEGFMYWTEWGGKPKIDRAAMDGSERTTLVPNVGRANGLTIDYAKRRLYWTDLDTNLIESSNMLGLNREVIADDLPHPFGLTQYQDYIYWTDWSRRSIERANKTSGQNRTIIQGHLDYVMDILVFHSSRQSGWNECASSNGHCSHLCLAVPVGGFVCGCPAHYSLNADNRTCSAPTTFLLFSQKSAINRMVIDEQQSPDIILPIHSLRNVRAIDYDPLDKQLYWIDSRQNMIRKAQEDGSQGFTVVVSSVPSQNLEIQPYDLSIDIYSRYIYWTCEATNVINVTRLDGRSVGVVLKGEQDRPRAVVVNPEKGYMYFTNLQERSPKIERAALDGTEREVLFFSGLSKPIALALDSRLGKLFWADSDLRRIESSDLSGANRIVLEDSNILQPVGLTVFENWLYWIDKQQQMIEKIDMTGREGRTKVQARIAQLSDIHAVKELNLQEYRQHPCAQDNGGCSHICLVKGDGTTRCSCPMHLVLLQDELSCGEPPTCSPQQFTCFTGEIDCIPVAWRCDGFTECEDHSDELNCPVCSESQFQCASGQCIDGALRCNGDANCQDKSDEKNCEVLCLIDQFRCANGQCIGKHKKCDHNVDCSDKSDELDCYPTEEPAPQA
# B1: Tiki2: Human Tiki2 (XP 371250/LOC388630) (SEQ ID NO:2), expressed in L or HEK293T cells (protein, listed as Homo sapiens)
# chain: MHAALAGPLLAALLATARARPQPPDGGQCRPPGSQRDLNSFLWTIRRDPPAYLFGTIHVPYTRVWDFIPDNSKAAFQASTRVYFELDLTDPYTISALASCQLLPHGENLQDVLPHELYWRLKRHLDYVKLMMPSWMTPAQRGKGLYADYLFNAIAGNWERKRPVWVMLMVNSLTERDVRFRGVPVLDLYLAQQAEKMKKTTGAVEQVEEQCHPLNNGLNFSQVLFALNQTLLQQESVRAGSLQASYTTEDLIKHYNCGDLSAVIFNHDTSQLPNFINTTLPPHEQVTAQEIDSYFRQELIYKRNERMGKRVMALLRENEDKICFFAFGAGHFLGNNTVIDILRQAGLEVDHTPAGQAIHSPAPQSPAPSPEGTSTSPAPVTPAAAVPEAPSVTPTAPPEDEDPALSPHLLLPDSLSQLEEFGRQRKWHKRQSTHQRPRQFNDLWVRIEDSTTASPPPLPLQPTHSSGTAKPPFQLSDQLQQQDPPGPASSSAPTLGLLPAIATTIAVCFLLHSLGPS
# Tests used:
# [1] = tested on: Wnt3a signaling; assay: TOPFLASH reporter assay, Wnt3a co-transfected with Tiki1 or Tiki2 in HEK293T cells; format: cell-based, human
# Source text: Wnt3a and Tiki1 or Tiki2 were co-transfected. The TOPFLASH reading (normalized to Renilla) in Wnt3a alone was set as 100. DNA transfection amounts are shown per well in a standard 24-well plate format. Representative data from one of three independent experiments is shown.
# The enlarged head phenotype by Tiki1 overexpression is indistinguishable from that by overexpression of Dkk1, a Wnt/LRP6 antagonist (MacDonald, B. T. et al., Dev Cell 17, 9-26 (2009); Glinka, A. et al., Nature 391, 357-362 (1998)). […] Thus Tiki1 likely acts at or upstream of Wnt receptors. […] Xenopus Tiki2, and human Tiki1 and Tiki2 also behaved as Wnt antagonists in Xenopus embryos, HEK293T cells (FIG. 2C) and mouse L cells (FIG. 5A).
# [2] = tested on: beta-catenin stabilization; assay: Beta-catenin stabilization in Wnt3a-expressing L cells, Western blotting; format: cell-based, mouse; settings: Wnt3a-producing L cells stably expressing human Tiki2
# Description: Wnt3a CM rescued Tiki2 inhibition of beta-catenin stabilization in Wnt3a-expressing cells. Indicated cell lines were treated with control or Wnt3a CM for 2 hrs and whole cell lysates (WCL) were subjected for Western blotting. Beta-tubulin was a loading control.
# (§1) As Tiki proteins are related to bacterial proteins of unknown function, it was speculated that Tiki may antagonize Wnt signaling through a novel mechanism, possibly in an enzymatic fashion. Human Tiki2 was stably expressed in L cells or Wnt3a-expressing L cells (human Tiki1 was poorly expressed in L cells). […] In fact Wnt3a CM restored beta-catenin stabilization in Wnt3a-expressing cells that also expressed Tiki2 (FIG. 5A).
# [3] = target: T1, mFz8CRD-IgG; assay: Binding of Wnt3a CM to mFz8CRD-IgG, protein G precipitation
# Description: (§2) Wnt3a CM was incubated with LRP6N-IgG or mFz8CRD-IgG. The protein complexes were precipitated by protein G agarose and subjected for Western blotting.
# as §1
# [4] = target: T2, LRP6N-IgG; assay: Binding of Wnt3a CM to LRP6N-IgG, protein G precipitation
# Description: as §2, §1
# [5] = target: Wnt3a (Mus musculus, UniProt P27467); assay: Triton X-114 phase separation of Wnt3a secreted from Tiki-expressing cells; format: cell-based; design: expressed in transfected cells; host or cells: mouse L cells (Wnt3a-expressing); HEK293T
# Chain of Wnt3a (P27467 19-352): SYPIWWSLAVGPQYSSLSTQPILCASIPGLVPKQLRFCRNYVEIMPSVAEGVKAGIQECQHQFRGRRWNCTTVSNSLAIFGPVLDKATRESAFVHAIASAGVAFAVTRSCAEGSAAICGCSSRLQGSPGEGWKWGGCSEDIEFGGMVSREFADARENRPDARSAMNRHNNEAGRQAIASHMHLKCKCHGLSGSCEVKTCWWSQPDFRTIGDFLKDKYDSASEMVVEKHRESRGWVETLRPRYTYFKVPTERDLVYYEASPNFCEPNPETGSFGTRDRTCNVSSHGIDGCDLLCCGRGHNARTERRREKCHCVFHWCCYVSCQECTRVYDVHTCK
# Source text: FIG. 6A is a gel showing that Tiki inactivates Wnt3a by regulating Wnt3a acylation/palmitoylation. A Triton X-114 phase separation experiment is shown in 6A. […] T, total; Aq, aqueous; De, detergent.
# FIG. 6B is a gel showing that Wnt3a secreted from Tiki1 or Tiki2 but not GFP-expressing HEK293T cells partitioned in the aqueous phase.
# C77 palmitoylation is required for Wnt3a activity (Willert, K. et al., Nature 423, 448-452 (2003)) and binding to both Fz and LRP6 (Komekado, H. et al., Genes Cells 12, 521-534 (2007); Cong, F. et al., Development 131, 5103-5115 (2004)), while S209 acylation is critical for Wnt3a secretion (Takada, R. et al., Dev Cell 11, 791-801 (2006)). Thus Tiki proteins may affect C77 palmitoylation but not S209 acylation. The palmitate adduct at C77 is the primary contributor to Wnt3a hydrophobicity because palmitoylated Wnt3a is partitioned in the Triton X-114 detergent phase whereas Wnt3a lacking the palmitate is soluble in the aqueous phase (Willert, K. et al., Nature 423, 448-452 (2003); Komekado, H. et al., Genes Cells 12, 521-534 (2007)).
molecule,measurement,setting,value
B1,"Wnt3a signaling, TOPFLASH reporter",[1],inhibit Wnt3a signaling
same,Beta-catenin stabilization,[2],inhibited beta-catenin stabilization
same,Binding of Wnt3a secreted from Tiki2-expressing cells to Fz (mFz8CRD-IgG),[3],failed to bind to either Fz or LRP6
same,Binding of Wnt3a secreted from Tiki2-expressing cells to LRP6 (LRP6N-IgG),[4],failed to bind to either Fz or LRP6
same,Partitioning of secreted Wnt3a in Triton X-114 phase separation,[5]; HEK293T cells,partitioned exclusively in the aqueous phase
same,Partitioning of secreted Wnt3a in Triton X-114 phase separation,[5]; L cells,partitioned exclusively in the aqueous phase
